Assay results as given in patent publication US5858752.

Biological target: 32D c13 cells stably expressing the human Fuc-TIV (myeloid) enzyme
Experiment: adhesion of 51Cr-loaded cells to plate-captured selectin/IgM fusion protein

With “human E-selectin/IgM fusion protein (from UniProt P16581)” the fold binding density relative to untransfected cells was 10 fold.
